Experiment: soluble on expression in E. coli; label from the status in PepcDB or PDB records

Row | Sequence | soluble on expression in E. coli
1 | MSLINRFSVPLLETSTIDLANVASNKIEPETVLTNARILSTYSDRILKDKELWIFKGRIACIKPSGSYKEFFQMDKSKIYEVNNNILAPGLIDPHMHIESSMMTGCAYAEAALLNGTTTIFCDSHEIGNVCDTDGIEWMLQDCRESPISIFLTLPSTIPATNKYLETAGGDLTDKKTAILFDKWPEIKGLGEKMDFVSVCEGNERSHSIISETLKRNLPVSGHVFGREFVAAYAASGITDTHEAEDKLFTNDLLDAGLWIFLRGGNPKTPWNSIKEAIKVITESEASTKRICVCTDDRDADDLFNFGLDWVVRQANTLGINNTTAWSMGSLHPATRFNIDRDYGALGHSRRADIVMINDNLEVLNTWLGGHLAVENKKITSLIDKQLSENRYQYPKRAYNTVILPKKINFIPDMPKESEFKINVIKTELPGIMTFKETIHIKEGHHHHHH | soluble
2 | MESNTWNTIHDNKKENAALNDVQVEVNYAIKLDDQWTVRPGMLTHFSSNGTRYGPYVKLSWDATKDLNFGIRYRYDWKAYRQQDLSGDMSRDNVHRWDGYVTYHINSDFTFAWQTTLYSKQNDYRYANHKKWATENAFVLQYHMTPDITPYIEYDYLDRQGVYNGRDNLSENSYRIGVSFKL | not soluble
3 | MKTNSEELTVFVQVVESGSFSRAAEQLEMANSAVSRIVKRLEEKLGVNLLNRTTRQLNLTEEGAQYFRRAQRILQEMAAAETEMLAVHEVPQGVLRVDSAMPMVLHLLAPLAAKFNERYPHIRLSLVSSEGYINLIERKVDIALRAGELDDSGLRARHLFDSHFRVVASPEYLAKHGTPQSAEDLANHQCLGFTEPGSLNTWAVLDAQGNPYKISPHFTASSGEILRSLCLSSCGIACLSDFLVDNDITEGKLIPLFAEQTSNKTHPFNAVYYSDKAVNLRLRVFLDFLVKELGKNMNRTNTK | not soluble
4 | MSLKKSPLTIVHLTDIHYDPEYVVGVNADCKAEACCRTLPDLAPATPETAAGYWSDYRDCDTPWHGVVDVMEHIRRQHPKIDAIYFTGDIVHHFTWNTSIETNEGAMRQVFDLMKRVFPGVPLYPVLGNHESHPANLYAPHDVEASYRMDYLYDFIADQWADWLPIKDIRPTLTEGGYYTVRTPYGVRIIGLNNNPCFVHNFWLFYSLDYFMPQLQWLHDTLLQAEWDNERVHILAHVPSYDDSCFIGWTREYRKIVERFAHIIAGQFNGHSHVDEFNLYYRRDDPSRAVSVAWNGGSTTTFTKLNPNYKVFQFDPVTFEPLEQETWMYNLTDANLTPDQRPSWYRLYSFKSYYQLPDLSVDSLHRLVQRFAQSEQQLHRYWQAKQKYSDPLLQEGCTSTCLRNALCAIVRTEHDDERACELLYERAAQSEGHHHHHH | not soluble
5 | VIHLDSKNFDSFLASHEIAVVDFWAEWCAPCLILAPIIEELAEDYPQVGFGKLNSDENPDIAARYGVMSLPTVIFFKDGEPVDEIIGAVPREEIEIRIKNLLGE | soluble
6 | MAHHHHHHMPADSTATAREVPIDTVALQLDAEMAQMRLQRQRYSTLCTRKNRLQAHVDELNAQGKDLTFQRQREQTRSAQELEHGLASSSTSLPEISRTPGDQAQLPAEVLGGALQELTACITERRELLQHLRDGSHDCLKLRDARFAKCSLSTVAGLDDHVASQSGIHASDTTAVIAGRGEAPTRCAARNPVSDSAVTSAAPASGLRHVEEGLAKAHQALCRGEEKALAEREYLLLLLQQCAQPQQLQQGRGRLACRQMAD | not soluble
7 | MSLENCKKVNYERVEKERESGSSISIRNFKREAYDSSGQLQWELRANESFVYVNENKTTFYDIDFDQYEAGKFKSKLLAEKGEINHKTRLMLLEGKILLKTDDHKILTAKTMEYNMDTKKLVSDSEVSVSADGTTIRGIGLRADKDLNKFTILKPTAITQGGTNPLKAAGSPEGHHHHHH | soluble
8 | MGHHHHHHSHMGLWQQISNCMPDLALCSDIKFFLRCLERWLNRNSSALQLPARSTQKEIISAFPTKVPSSSHWDWLDSGCSPQKASRSRVGCRLTREAQGVRELPPLAKGSCEGLCREERGIPAQILCFPHGLCNPQTRRFPWVPAPPGPWVSSKKLGSHLGRH | not soluble
9 | MAITVKGLTNKLTRTQRRIAVVEFIFSLLFFLPKEAEVIQADFLEYDTKERQLNEWQKLIVKAFSENIFSFQKKIEEQQLKNQLEIQTKYNKISGKKIDLLTTAVVLCALSEQKAHNTDKPLLISEALLIMDHYSQGAEKKQTHALLDKLL | soluble
10 | MKPSSPSRSKGHAKARRKTREELNQEARDRKRQKKRRGHAPGSRAAGGNNTSGSKGQNAPKDPRIGSKTPIPLGVTEKVTKQHKPKSEKPMLSPQAELELLETDERLDALLERLEAGETLSAEEQSWVDAKLDRIDELMQKLGLSYDDDEEEEEDEKQEDMMRLLRGN | not soluble
11 | MGSDKIHHHHHHMKIGFLGFGKSNRSLLKYLLNHQEAKFFVSEAKTLDGETKKFLEEHSVEYEEGGHTEKLLDCDVVYVSPGIKPDTSMIELLSSRGVKLSTELQFFLDNVDPKKVVGITGTDGKSTATALMYHVLSGRGFKTFLGGNFGTPAVEALEGEYDYYVLEMSSFQLFWSERPYLSNFLVLNISEDHLDWHSSFKEYVDSKLKPAFLQTEGDLFVYNKHIERLRNLEGVRSRKIPFWTDENFATEKELIVRGKKYTLPGNYPYQMRENILAVSVLYMEMFNELESFLELLRDFKPLPHRMEYLGQIDGRHFYNDSKATSTHAVLGALSNFDKVVLIMCGIGKKENYSLFVEKASPKLKHLIMFGEISKELAPFVGKIPHSIVENMEEAFEKAMEVSEKGDVILLSPGGASFDMYENYAKRGEHFREIFKRHGGDEV | not soluble
12 | MAHHHHHHMTSPMLMAAENFCFTPQSHFMVKTPKSERAHQCSKLYNEAFVVSNRTGLRSILRANESGRSYLNGGGIIARVWALEEALKAFFNLRKKKFVWGCDQSMWALLLIWSITRPENIKPALLVRRGLISLDYETRYFLYPSKTMVMSGMILHFAGPVHVWKRTLPQYLSEINWYRALSNSSPKREASIRLLKNSTVEMYTFWGSRKDAKLSTVCPISNISDPSWLSGQLKK | soluble
13 | MGHHHHHHGGHMSLTKKLHIKTWGCQMNEYDSSKMADLLDATHGYQLTDVAEEADVLLLNTCSIREKAQEKVFHQLGRWKLLKEKNPDLIIGVGGCVASQEGEHIRQRAHYVDIIFGPQTLHRLPEMINSVRGDRSPVVDISFPEIEKFDRLPEPRAEGPTAFVSIMEGCNKYCTYCVVPYTRGEEVSRPSDDILFEIAQLAAQGVREVNLLGQNVNAWRGENYDGTTGSFADLLRLVAAIDGIDRIRFTTSHPIEFTDDIIEVYRDTPELVSFLHLPVQSGSDRILNLMGRTHTALEYKAIIRKLRAARPDIQISSDFIVGFPGETTEDFEKTMKLIADVNFDMSYSFIFSARPGTPAADMVDDVPEEEKKQRLYILQERINQQAMAWSRRMLGTTQRILVEGTSRKSIMELSGRTENNRVVNFEGTPDMIGKFVDVEITDVYPNSLRGKVVRTEDEMGLRVAETPESVIARTRKENDLGVGYYQPEGGS | soluble
14 | MAEGPLEAPFWRKGLLVAGLDEAGRGAWAGPIVVGAVVLPPGEYPFRDSKLLSPKARERLAEKVKEVALAFALGVAEAAEVDRLGVLKATLLAAERALLSLPLAPEALVTDYLPLPTPLPLLSPPKADEKSPTVAAASILAKVHRDRIMDELDRLYPGYGFARHKGYGTQEHQEALLALGPSPVHRKRFAPVAQAPLRFPEAP | soluble
15 | MKLKKIVFTLIALGLFSCKTTSVLVKNEPQLKTPKNVILLISDGAGLSQISSTFYFKSGTPNYTQFKNIGLIKTSSSREDVTDSASGATAFSCGIKTYNAAIGVADDSTAVKSIVEIAALNNIKTGVVATSSITDATPASFYAHALNRGLEEEIAMDMTESDLDFFAGGGLNYFTKRKDKKDVLAILKGNQFTINTTALTDFSSIASNRKMGFLLADEAMPTMEKGRGNFLSAATDLAIQFLSKDNSAFFIMSEGSQIDWGGHANNASYLISEINDFDDAIGTALAFAKKDGNTLVIVTSDHETGGFTLAAKKNKREDGSEYSDYTEIGPTFSTGGHSATLIPVFAYGPGSEEFIGIYENNEIFHKILKVTKWNQ | soluble
16 | MRHILSVLIENESGAMSRVVGLFSARDYNIDSLAVAPTEDKTLSRMTIVTHGDEQVIEQITKQLNKLIEVIKVVDLNESRFVERELMLVKVRAAGKDRDEFLRLTEIYRGSIIDVTDRSYTIEITGSTDKLDSFLETVGRAQILETVRTGAAGIGRGERILKI | not soluble
